The target of the test is T1, human VEGFR-2/Fc (R&D Systems) (human, UniProt P35968 20-764).
T1 construct: also called recombinant VEGFR2/Fc; VEGFR/Fc; not shown: Fc part of the bought fusion protein (captured by anti-human IgG-Fc in the ELISA)
Kind of test: SPR, Biacore 3000, human VEGFR-2/Fc immobilized.

T1 sequence (P35968 20-764): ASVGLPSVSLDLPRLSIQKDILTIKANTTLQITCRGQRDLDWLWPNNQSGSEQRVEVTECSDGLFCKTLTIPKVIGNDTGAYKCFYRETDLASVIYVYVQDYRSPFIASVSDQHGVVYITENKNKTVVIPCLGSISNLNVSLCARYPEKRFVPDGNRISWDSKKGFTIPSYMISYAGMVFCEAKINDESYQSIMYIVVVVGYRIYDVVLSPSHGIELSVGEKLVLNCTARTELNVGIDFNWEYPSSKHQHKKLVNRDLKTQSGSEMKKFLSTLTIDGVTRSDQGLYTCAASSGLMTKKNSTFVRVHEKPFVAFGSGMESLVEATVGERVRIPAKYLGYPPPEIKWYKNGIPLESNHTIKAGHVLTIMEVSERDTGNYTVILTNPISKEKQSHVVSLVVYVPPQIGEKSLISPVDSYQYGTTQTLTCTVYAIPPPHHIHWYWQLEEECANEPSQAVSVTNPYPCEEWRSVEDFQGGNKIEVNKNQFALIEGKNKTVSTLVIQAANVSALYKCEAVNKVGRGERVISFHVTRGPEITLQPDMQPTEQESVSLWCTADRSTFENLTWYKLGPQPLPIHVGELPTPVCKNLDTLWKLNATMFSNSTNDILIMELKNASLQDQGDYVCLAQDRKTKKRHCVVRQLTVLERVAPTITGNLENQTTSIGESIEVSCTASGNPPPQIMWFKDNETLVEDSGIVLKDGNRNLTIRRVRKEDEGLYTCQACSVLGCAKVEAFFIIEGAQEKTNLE

B1: AB4 with linker 2; VR2-38 (SEQ ID NO:27) (VHH)
VHH: QVKLEESGGGLVQAGGSLRLSCAASGGTASSYAMGWFRQAPGKEREFVAAISRSGGNTDYVDSAKGRFTISRDDAKNTVSLQMNSLRLEDTAVYYCAARYAGTWPNDAGTVYWLPPNYNYWGQGTQVTVSS
The molecule B1 showed a dissociation constant (Kd) of 80 nM and a koff of 0.015 s⁻¹.

These data come from patent US20180230219A1 (HELIX BIOPHARMA, published 2018).
